The target of assay [1] is FcRn receptor. As to the kind of experiment: FcRn binding, 'standard methods'.
Assay [2] has as its target T1, Myostatin (R&D Systems, Catalogue number 788-G8-010/CF) (UniProt O14793).
T1 sequence (looked up): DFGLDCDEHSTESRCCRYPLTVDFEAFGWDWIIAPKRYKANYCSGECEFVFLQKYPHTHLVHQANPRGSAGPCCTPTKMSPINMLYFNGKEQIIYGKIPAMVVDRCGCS
As to the kind of experiment: BIAcore SPR; fusion captured on anti-human Fc; myostatin as analyte (5-0.31 nM).

Assay [3] deals with Activin A (R&D Systems, Catalog number 338-AC-050 CF) (UniProt P08476). As to the kind of experiment: BIAcore SPR; fusion captured on anti-human Fc; activin A as analyte (2.5-0.15 nM); lower end of the printed range 1-2 pM; fusion captured on anti-human Fc, activin A tested 2.5-0.15 nM.
The target is the same in assay [4]. As to the kind of experiment: BIAcore SPR; fusion captured on anti-human Fc; activin A as analyte (2.5-0.15 nM); upper end of the printed range 1-2 pM; fusion captured on anti-human Fc, activin A tested 2.5-0.15 nM.
The target in assay [5] is T1, Myostatin (R&D Systems, Catalogue number 788-G8-010/CF). Briefly: cell-based or functional assay.
In assay [6] the target is Activin A (R&D Systems, Catalog number 338-AC-050 CF) (UniProt P08476). As to the kind of experiment: cell-based or functional assay.
In assay [7] the target is Fc Gamma Receptor RIA (R&D Systems, Catalog #1257-FC-050) (UniProt P12314). Briefly: SPR; fusion immobilised on CM5 chip; Fc gamma receptor IA as analyte (62.5-0.49 nM).
Fc Gamma Receptor RIA (R&D Systems, Catalog #1257-FC-050), sequence (P12314 16-288 limits assumed): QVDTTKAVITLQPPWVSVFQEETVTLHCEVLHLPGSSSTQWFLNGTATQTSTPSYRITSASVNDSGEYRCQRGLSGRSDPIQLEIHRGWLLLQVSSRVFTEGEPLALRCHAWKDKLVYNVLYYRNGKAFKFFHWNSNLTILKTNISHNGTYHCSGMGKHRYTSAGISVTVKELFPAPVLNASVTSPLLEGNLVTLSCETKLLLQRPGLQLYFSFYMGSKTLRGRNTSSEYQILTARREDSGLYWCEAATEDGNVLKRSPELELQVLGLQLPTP

Activin A (R&D Systems, Catalog number 338-AC-050 CF), sequence (P08476 311-426): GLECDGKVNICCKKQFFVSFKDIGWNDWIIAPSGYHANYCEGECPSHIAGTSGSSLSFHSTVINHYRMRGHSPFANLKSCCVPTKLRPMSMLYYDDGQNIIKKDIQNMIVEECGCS
monoFS315K(76,81,82)E-hFcLALA (Fc fusion), sequence (chain): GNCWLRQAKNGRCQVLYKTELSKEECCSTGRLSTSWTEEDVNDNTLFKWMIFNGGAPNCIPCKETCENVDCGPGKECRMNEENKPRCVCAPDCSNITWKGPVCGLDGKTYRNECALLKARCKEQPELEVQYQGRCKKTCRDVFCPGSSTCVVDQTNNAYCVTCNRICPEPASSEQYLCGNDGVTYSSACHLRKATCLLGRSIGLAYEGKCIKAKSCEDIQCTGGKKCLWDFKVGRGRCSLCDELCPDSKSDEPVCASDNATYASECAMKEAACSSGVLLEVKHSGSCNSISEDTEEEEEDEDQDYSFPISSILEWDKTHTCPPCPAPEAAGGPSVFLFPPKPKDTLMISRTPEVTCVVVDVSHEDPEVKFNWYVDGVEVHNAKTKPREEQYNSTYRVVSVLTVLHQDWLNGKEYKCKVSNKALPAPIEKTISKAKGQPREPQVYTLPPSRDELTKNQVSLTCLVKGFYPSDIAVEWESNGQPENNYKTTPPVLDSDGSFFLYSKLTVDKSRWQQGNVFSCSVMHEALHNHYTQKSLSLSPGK

As to “monoFS315K(76,81,82)E-hFcLALA (Fc fusion)”, the values for the Kd in assay [1] and in assay [2] were 40.6 nM and less than 0.004 nM, respectively.

On to “FS315WT-hFc (from UniProt P19883 30-344) (Fc fusion)”, for which the Kd in assay [3] was 0.001 to 0.002 nM; in assay [1], 114 nM; in assay [4], 0.001 to 0.002 nM; in assay [7], 0.14 nM; in assay [2], 0.006 to 0.01 nM. In assay [5], this substance yielded a Myostatin IC50 (nM), luciferase gene reporter assay (Smad3, A204 cells) of 0.4 nM. Moreover, the Activin A IC50 (nM), luciferase gene reporter assay (Smad3, A204 cells) in assay [6] amounted to 0.7 nM.

For FS315ΔHBS-hFcLALA (Fc fusion), the Myostatin IC50 (nM), luciferase gene reporter assay (Smad3, A204 cells) in assay [5] is 0.4 nM.

Consider monoFS315wt-hFcLALA (Fc fusion), for which the Kd in assay [1] came out at 12.8 nM; in assay [2], 0.00289 nM.

Consider FS315K(81,82,84)E-hFcLALA (Fc fusion), for which, in assay [5], the Myostatin IC50 (nM), luciferase gene reporter assay (Smad3, A204 cells) was found to be 0.4 nM. In assay [6], this substance came in with an Activin A IC50 (nM), luciferase gene reporter assay (Smad3, A204 cells) of 1 nM.

For the origin of these results see patent US20200247856A1.
